These results are taken from PMC8205485.

Series [1] has as its system T1, XssQ (Synechocystis sp. PCC 6803), ORF:81bb7109.
T1 sequence: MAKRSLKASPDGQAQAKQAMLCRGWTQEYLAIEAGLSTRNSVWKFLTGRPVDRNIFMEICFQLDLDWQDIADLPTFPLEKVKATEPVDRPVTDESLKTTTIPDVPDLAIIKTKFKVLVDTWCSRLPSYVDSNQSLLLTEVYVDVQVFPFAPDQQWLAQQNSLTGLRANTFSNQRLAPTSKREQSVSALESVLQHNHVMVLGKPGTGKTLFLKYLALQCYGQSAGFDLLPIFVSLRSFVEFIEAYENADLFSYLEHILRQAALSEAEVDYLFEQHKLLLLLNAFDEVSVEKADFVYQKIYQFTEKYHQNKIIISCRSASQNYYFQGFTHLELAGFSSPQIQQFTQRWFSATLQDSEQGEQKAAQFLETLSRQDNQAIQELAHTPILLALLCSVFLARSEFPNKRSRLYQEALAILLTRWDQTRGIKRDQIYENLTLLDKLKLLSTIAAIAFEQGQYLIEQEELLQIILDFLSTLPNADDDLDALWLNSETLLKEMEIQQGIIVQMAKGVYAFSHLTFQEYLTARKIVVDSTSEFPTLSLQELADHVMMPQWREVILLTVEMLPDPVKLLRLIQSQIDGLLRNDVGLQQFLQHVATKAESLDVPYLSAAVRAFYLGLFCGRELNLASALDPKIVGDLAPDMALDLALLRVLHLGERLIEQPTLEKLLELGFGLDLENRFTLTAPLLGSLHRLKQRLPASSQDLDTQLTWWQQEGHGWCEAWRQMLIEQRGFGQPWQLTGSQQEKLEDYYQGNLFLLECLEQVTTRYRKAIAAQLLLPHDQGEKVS
Briefly: competition. As to conditions: EMSA, 30 min at room temperature; buffer, salt and pH not given (refers to Hirose 2010, Maeda 2014, Midorikawa 2009). A general note: A gel shift assay detects complexes by their altered migration in electrophoresis.

Series [2] has the same test system. Briefly: EMSA. As to conditions: 30 min at room temperature, buffer, salt and pH not given (refers to Hirose 2010, Maeda 2014, Midorikawa 2009).

“ATCTTTAAAGCCCCAGTCCCGATCGCCAGCGGTTAAACAGGTAAAAAAACAGAAGCAGAAATCTAGTGAGCAGGGGAAACTCAAAACCAAGCCGGGGCGCTCAAAGTCAGGGTCAGGCAAAAGGTCTAAAGTTAGACGCAAAGTTGTACATAGGGCAGGCACGAAATCAGACAGCGATCCATCAAGCTAAGAACAGGTTGCAATTGCCCATCTCACGATCGCCGTCACGCCCCCATGAACACTTCTTTCCT (double strand) [xssE upstream probe / native competitor]”: the binding entry in series [1] and in series [2] was “binds” throughout.
